Experimental data from PMC10079538, “Unusual PDGFRB fusion reveals novel mechanism of kinase activation in Ph-like B-ALL” (Leukemia, 2023).

Target: the molecule itself
Experiment: SEC; elution of the recombinant protein purified from insect cells; molecular weight from the elution

B1: recombinant truncated PDGFRB (PDGFRB^584-1106) (domain or fragment, human, UniProt P09619 584-1106, looked up)
chain: PMQLPYDSTWELPRDQLVLGRTLGSGAFGQVVEATAHGLSHSQATMKVAVKMLKSTARSSEKQALMSELKIMSHLGPHLNVVNLLGACTKGGPIYIITEYCRYGDLVDYLHRNKHTFLQHHSDKRRPPSAELYSNALPVGLPLPSHVSLTGESDGGYMDMSKDESVDYVPMLDMKGDVKYADIESSNYMAPYDNYVPSAPERTCRATLINESPVLSYMDLVGFSYQVANGMEFLASKNCVHRDLAARNVLICEGKLVKICDFGLARDIMRDSNYISKGSTFLPLKWMAPESIFNSLYTTLSDVWSFGILLWEIFTLGGTPYPELPMNEQFYNAIKRGYRMAQPAHASDEIYEIMQKCWEEKFEIRPPFSQLVLLLERLLGEGYKKKYQQVDEEFLRSDHPAILRSQARLPGFHGLRSPLDTSSVLYTAVQPNEGDNDYIIPLPDPKPEVADEGPLEGSPSLASSTLNEVNTSSTISCDSPLEPQDEPEPEPQLELQVEPEPELEQLPDSGCPAPRAEAEDSFL
notes: PDGFRB, human, residues 584-1106; truncated form encoded by the CD74^intr::PDGFRB fusion, lacks the juxtamembrane region; methods are in the supplementary file; also called truncated PDGFRB^584-1106; source: insect cells, expressed and purified
  stoichiometry N: 2
